Results on one molecule are retold here after patent US9097721B2, “Compositions comprising engineered phosphothreonine affinity reagents, methods of making, and methods of use” (The Board of Trustees of the University of Illinois, priority 2012, dated 2015).

Data set [1] concerns the target T1, cognate pT peptide (Rad9-pT) (Saccharomyces cerevisiae, UniProt P14737).
T1 construct: host or cells: chemical synthesis
The experiment in a line: FTS assay, Tm shift in the presence of the cognate pT peptide. The data set is classed as binding, yeast. The procedure: The FTS assay was performed on a MxPro-Mx3005P instrument (Stratagene) following the protocol described by Giuliani et al (Giuliani et al. (2008) Biochemistry 47, 13974-84). It is a real-time assay using the SYBR® Green experiment setting with dissociation curve. The default FRROX filter set was used with an excitation wavelength of 492 nm and emission wavelength of 610 nm. FHA1 domains diluted with PBS to 2× final concentration (i.e. 2 μM and 8 μM) were mixed with 10×SYPRO® Orange protein gel stain (Invitrogen; 5000× concentration in DMSO) to give a final dye concentration of 10×. Then, to the protein wells only, 10 μL of the dye+protein mixture was added along with 10 μL of 1×PBS buffer. In other wells, 10 μL of either the pT peptide or its non-phosphorylated form (diluted to 2× final concentration with PBS, i.e. 100 μM and 500 μM) was added to 10 μL of dye+protein mixture. The final reaction volume was 20 μL with final concentrations of 1 μM or 4 μM of FHA1 domains, 50 μM or 250 μM of pT and non-phosphorylated peptides and 5× final concentration of the SYPRO® Orange. The assay was performed in duplicate in 96 well white PCR plates (BIO-Rad) covered with optically clear Microseal® ‘B’ Film (Bio-Rad) and heated from 25° C. to 95° C. and the melting curve was obtained with fluorescence (R) values plotted on the Y-axis and increasing temperature (° C.) on the X-axis. The mid-point of the curve gives the melting temperature (Tm), which shifts to a higher temperature in the presence of the pT peptide.
The Tm values of FHA1 variants were determined by FTS assay (Giuliani et al. (2008) Biochemistry 47, 13974-84). A representative Tm curve for the G2 variant at 1 μM concentration is shown (solid squares), alone and in the presence of the pT peptide (FIG. 11). […] The Tm values of the thermally stable variants (along with WT and D2 variant) at 1 μM and 4 μM concentration, along with the Tm shift in the presence of two different concentrations (50 μM and 250 μM) of the pT peptide, are listed in Table S3.

In data set [2] the target is T2, pT peptide (Rad 9-pT: SLEVpTEADATFYAKK) (Saccharomyces cerevisiae, UniProt P14737).
T2 construct: host or cells: chemical synthesis
Particulars: Durocher et al. (2000); read-out: previously reported Kd by ITC; cited from earlier work. For orientation: ITC needs no label: the signal is the heat of the interaction.

The target in data set [3] is T3, Rad9-pT peptide (Saccharomyces cerevisiae, UniProt P14737).
T3 construct: host or cells: chemical synthesis
The experiment in a line: Phage ELISA of phage-displayed FHA1 domains. In kind it is binding, yeast. Particulars: for binding to Rad9-pT peptide when phage-displayed: M13 protein III fusion, DsbA signal sequence; for binding to Rad9-pT peptide when phage-displayed with chaperones: co-expression of dsbA, dsbC, fkpA, skp and surA. Here is the method: To amplify the phage particles displaying the recombinant FHA1 variants, TG1 bacterial cells (5 mL; Stratagene) harboring the phagemid DNA were infected at mid-log (OD600nm=0.5-0.6) with M13K07 helper phage (New England Biolabs) at a multiplicity of infection (MOI) of 20 for 1 h at 37° C. at 150 rpm. Infected cells were centrifuged, and the pellet was resuspended in fresh Luria Bertani medium (LB: 10 g Tryptone, 5 g Yeast extract, and 10 g NaCl per liter) supplemented with 50 μg/mL carbenicillin and 50 μg/ml kanamycin, and phage were amplified overnight at 30° C. at 250 rpm. All of the phage ELISA steps were performed at room temperature. Biotinylated peptides (100 μL, 5 μg/mL) were immobilized on Nunc MaxiSorp flat-bottom 96 well plates (Thermo Fisher Scientific) via NeutrAvidin™ Biotin binding protein (100 μL, 10 μg/mL; Thermo Fisher Scientific) and blocked with 2% skim milk in 1×PBS (200 μL per well). After washing with Phosphate Buffered Saline (PBS: 0.14 M Sodium Chloride, 0.003 M Potassium Chloride, 0.002 M Potassium Phosphate, and 0.01 M Sodium Phosphate), the wells were incubated with the phage supernatant (100 μL of phage diluted 1:2 with PBS containing 0.1% Tween 20 (PBST)) for 1 h and washed three times with PBST. The binding phage were detected using anti-M13 antibody conjugated to horse radish peroxidase (HRP) (GE Healthcare) diluted 1:5000 with PBST. After washing away the unbound antibody, the chromogenic substrate for HRP; 2,2′-Azinobis (3-ethylbenzothiazoline-6-Sulfonic Acid) diammonium salt (Thermo Fisher Scientific), supplemented with hydrogen peroxide was added (100 μL per well), and the absorbance of the green colored complex was measured at 405 nm on POLARstar OPTIMA microtiter plate reader (BMG Labtech).

B1: WT: N-terminal FHA1 domain of S. cerevisiae Rad53 protein kinase, residues 1-170 (SEQ ID NO:7) (protein, listed as Saccharomyces cerevisiae)
chain: MENITQPTQQSTQATQRFLIEKFSQEQIGENIVCRVICTTGQIPIRDLSADISQVLKEKRSIKKVWTFGRNPACDYHLGNISRLSNKHFQILLGEDGNLLLNDISTNGTWLNGQKVEKNSNQLLSQGDEITVGVGVESDILSLVIFINDKFKQCLEQNKVDRIRSNLKNT
As for B1, the “Tm shift (° C.) in the presence of pT peptide” value in data set [1] (50 μM pT peptide, protein 1 μM) was 1.7 °C; in data set [1] (50 μM pT peptide, protein 4 μM), 1.95 °C; in data set [1] (250 μM pT peptide, protein 1 μM) it was 3.8 °C; in data set [1] (250 μM pT peptide, protein 4 μM) it was 3.55 °C. In addition, in data set [2], the Kd (as a rule, the concentration at which binding is half-saturated) is 530 nM. The figures for the “binding to Rad9-pT peptide when phage-displayed” value in data set [3], in data set [3] (listed as WT FHA1 domain) and in data set [3] (listed as wild-type (WT) FHA1 domain) were “non-functional”, “did not bind” and “no binding was detected”, respectively. For the same molecule, the figures for the “binding to Rad9-pT peptide when phage-displayed via TorA signal sequence” value in data set [3] and in data set [3] (listed as WT FHA1 domain) were “only detected when the phage particles were concentrated 50 times” and “only partially restored”, respectively. Moreover, the “binding to Rad9-pT peptide when phage-displayed with chaperones” value in data set [3] was “remained nonfunctional”; in data set [3] (listed as WT FHA1 domain), “did not restore the activity”.
